We go through twelve molecules from PMC7971322, “Insights into the mechanism regulating the differential expression of the P28-OMP outer membrane proteins in obligatory intracellular pathogen Ehrlichia chaffeensis”.

What is called Kd is a measure of binding affinity in units of concentration.

In data set [1] the target is T1, rTr1 (Ehrlichia chaffeensis) (UniProt Q2GF81).
T1 sequence: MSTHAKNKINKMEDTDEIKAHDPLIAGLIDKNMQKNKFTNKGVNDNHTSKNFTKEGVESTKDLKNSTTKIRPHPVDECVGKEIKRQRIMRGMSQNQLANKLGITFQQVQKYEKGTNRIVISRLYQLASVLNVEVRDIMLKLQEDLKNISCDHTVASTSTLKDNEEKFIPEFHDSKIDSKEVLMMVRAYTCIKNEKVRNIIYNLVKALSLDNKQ
The data set is described as follows: DNase I footprinting. To be noted: EMSA/footprint: 10 mM Tris-HCl pH 7.5, 100 mM NaCl, 1 mM DTT, 10% glycerol, 25 C, SPR: 10 mM Tris-HCl pH 7.5, 100 mM NaCl, 0.05% Tween 20, 25 C. In general terms: Mobility shift assays separate free from complexed probe on a gel.

Data set [2] has as its target T2, rEcxR (Ehrlichia chaffeensis) (UniProt Q2GG40).
T2 sequence: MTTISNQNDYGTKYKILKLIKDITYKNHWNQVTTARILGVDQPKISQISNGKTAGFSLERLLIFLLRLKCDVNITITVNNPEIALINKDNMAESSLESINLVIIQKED
Nature of the data set: EMSA. To be noted: EMSA/footprint: 10 mM Tris-HCl pH 7.5, 100 mM NaCl, 1 mM DTT, 10% glycerol, 25 C, SPR: 10 mM Tris-HCl pH 7.5, 100 mM NaCl, 0.05% Tween 20, 25 C.

The target of data set [3] is T1, rTr1 (Ehrlichia chaffeensis). The data set is described as follows: EMSA. The settings on record: EMSA/footprint: 10 mM Tris-HCl pH 7.5, 100 mM NaCl, 1 mM DTT, 10% glycerol, 25 C, SPR: 10 mM Tris-HCl pH 7.5, 100 mM NaCl, 0.05% Tween 20, 25 C.
In data set [4] the target is T3, rEcxR (Ehrlichia chaffeensis, UniProt Q2GG40 1-108).
T3 sequence: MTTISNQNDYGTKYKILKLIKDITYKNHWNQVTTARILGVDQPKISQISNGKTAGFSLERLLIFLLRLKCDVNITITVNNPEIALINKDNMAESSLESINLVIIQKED
The data set is described as follows: SPR; EMSA/footprint: 10 mM Tris-HCl pH 7.5, 100 mM NaCl, 1 mM DTT, 10% glycerol, 25 C; SPR: 10 mM Tris-HCl pH 7.5, 100 mM NaCl, 1 mM DTT, 0.05% Tween 20, 25 C. To be noted: protein: recombinant, tags: C-terminal His (pET-29a), chain copies: 2, none in plain EMSA.

Data set [5] concerns the target T4, rTr1 (Ehrlichia chaffeensis, UniProt Q2GF81 1-213).
T4 sequence: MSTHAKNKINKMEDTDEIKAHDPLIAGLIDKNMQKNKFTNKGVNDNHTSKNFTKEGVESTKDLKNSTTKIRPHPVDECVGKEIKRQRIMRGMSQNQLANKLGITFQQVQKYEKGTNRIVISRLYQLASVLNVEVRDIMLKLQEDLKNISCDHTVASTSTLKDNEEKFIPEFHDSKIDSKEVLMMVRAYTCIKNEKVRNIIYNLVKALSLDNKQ
Described as above. The settings on record: protein: recombinant, tags: N-terminal His (pET-33b), chain copies: 2.

In data set [6] the target is T4, rTr1. Nature of the data set: competition; 50-fold unlabelled vs biotinylated region II, 1 uM rTr1; EMSA/footprint: 10 mM Tris-HCl pH 7.5, 100 mM NaCl, 1 mM DTT, 10% glycerol, 25 C; SPR: 10 mM Tris-HCl pH 7.5, 100 mM NaCl, 1 mM DTT, 0.05% Tween 20, 25 C. To be noted: protein: recombinant; tags: N-terminal His (pET-33b); chain copies: 2; blunt.
In data set [7] the target is T4, rTr1. The data set is described as follows: EMSA; 1.8 uM rTr1; EMSA/footprint: 10 mM Tris-HCl pH 7.5, 100 mM NaCl, 1 mM DTT, 10% glycerol, 25 C; SPR: 10 mM Tris-HCl pH 7.5, 100 mM NaCl, 1 mM DTT, 0.05% Tween 20, 25 C. The settings on record: protein: recombinant; tags: N-terminal His (pET-33b); chain copies: 2; blunt.
The target in data set [8] is T4, rTr1. The data set is described as follows: competition; 50-fold unlabelled vs biotinylated region I, 1 uM rTr1; EMSA/footprint: 10 mM Tris-HCl pH 7.5, 100 mM NaCl, 1 mM DTT, 10% glycerol, 25 C; SPR: 10 mM Tris-HCl pH 7.5, 100 mM NaCl, 1 mM DTT, 0.05% Tween 20, 25 C. To be noted: protein: recombinant; tags: N-terminal His (pET-33b); chain copies: 2; blunt.

For “ATGATATCAATGCACTTGTTATGAAAACTTTTTTGTAATTCATATATAACCTAATAGTGACAAATAAATTAACAATAGTAGAAGTGTCATATAAAAGCAAGTCAGAATATAAATTTTTGTATAAAATATCGGTAACTTTTGTAAGGAAAATTTAATATATTACGTCAGGTAAGTAATAGCAAAAAAACTGGTTAAGTATAGTATCATGTGTAAAGGTGAGAAAAACAGCACTTATA (double strand) [p28 promoter footprint fragment]”, the binding result in data set [1] is listed as “binds”.
In the case of “CCTATAACAAAGCAACCTATGTAAGATAAATCATGCATAAAGTGAATGCAATAGTTATTTAATGGATATATTCTATCTAGTTTGCTGGAATAGTATACTAATTATATAATATACAGAAATAACATATTATGCTTTATGAAATATAAGATAAAATTTATTTACTTTTTAGCTTGATTGGATCAATAATTTATATTAAACATGAAAGTCAGTTTGTCCGGGT (double strand) [tr1 promoter EMSA probe]”, the binding entry in data set [2] and in data set [3] was “binds” throughout.
Consider “CCTATAACAAAGCAACCTATGTAAGATAAATCATGCATAAAGTGAATGCAATAGTTATTTAATGGATATATTCTATCTAGTTTGCTGGAATAGTATACTAATTATATAATATACAGAAATAACATATTATGCTTTATGAAATATAAGATAAAATTTATTTACTTTTTAGCTTGATTGGATCAATAATTTATATTAAACATGAAAGTCAGTTTGTCCGGGT (double strand) [tr1 promoter footprint fragment]”, for which, in data set [1], the binding entry is reported as “binds”.
For the molecule “GAATTTGTGATTTGAAATAACAAGACTTAAATGTCGAATTTAGCTTCTGTCCTAGTGGATAAGTACTTTAGCAAGTGGTAAAAGCAAGTCTACTCATATTTTTATTAATTAAGTAGTAAAGTTAACTATAGATTTTATTAAAATTTTTATTCTAATCACTTTAAATATCAATTACTTTTGTTGTAAATTTGAAAGAAATTTTATATTCTAGACTTGCTTTTCTTTATTTCTTTCATTATTCTTAAATTTTTATTATCTTTTATAAAAGGTTTATTAAC (double strand) [omp-1B promoter EMSA probe]”, the binding entry in data set [2] and in data set [3] was “binds” throughout.
As for “GAATTTGTGATTTGAAATAACAAGACTTAAATGTCGAATTTAGCTTCTGTCCTAGTGGATAAGTACTTTAGCAAGTGGTAAAAGCAAGTCTACTCATATTTTTATTAATTAAGTAGTAAAGTTAACTATAGATTTTATTAAAATTTTTATTCTAATCACTTTAAATATCAATTACTTTTGTTGTAAATTTGAAAGAAATTTTATATTCTAGACTTGCTTTTCTTTATTTCTTTCATTATTCTTAAATTTTTATTATCTTTTATAAAAGGTTTATTAAC (double strand) [omp-1B promoter footprint fragment]”, the binding entry in data set [1] is listed as “binds”.
Still for that read-out and setting: next, “GTGATAGGGAATGAATTCAGAGATATTCCTGCTATGATACCCAGTACCTCAACTCTCACAGGTAATCACTTTACTATAGTAACACTAAGTGTATGCCACTTTGGAGTGGAACTTGGAGGAAGGTTTAACTTTTAATTTTATTATTGCCACATGTTAAAAATAATCTAAACTTGTTTTTATTATTGCTGCAGGTAAATAAAAATAGTGGCAAAAGAATGTAGCAATAAGAGGGGGGGGGGGGGGACTAGTTTATAAGTGCTGTTTTTCTCACCTTTA (double strand) [p28 II footprint fragment]”: “binds”.

B1: Tr1 protected region II (omp-1B promoter) (dsDNA)
DNA 1: AGTAAAGTTAACTATAGATTTTATTAAAATTTTTATTCTAATCACTTTAA
DNA 2: TTAAAGTGATTAGAATAAAAATTTTAATAAAATCTATAGTTAACTTTACT
In the case of B1, the binding result in data set [4] (blunt) is “no binding”. Further, the Kd in data set [5] (none in plain EMSA, blunt) was 15.5 nM.

B2: Tr1 protected region II, mutated motif (dsDNA)
DNA 1: AGTAAAGTTAGGGGGGGATTTTATTAAAATTTTTATTCTAATCACTTTAA
DNA 2: TTAAAGTGATTAGAATAAAAATTTTAATAAAATCCCCCCCTAACTTTACT
Regarding B2, in data set [6], the binding result was “no binding”.

B3: Tr1 protected region III (tr1 promoter) (dsDNA)
DNA 1: TAAAGCATAATATGTTATTTCTGTATATTATATAAT
DNA 2: ATTATATAATATACAGAAATAACATATTATGCTTTA
For the molecule B3, the binding result in data set [7] is “binds”.

B4: Tr1 protected region IV (upstream of p28) (dsDNA)
DNA 1: TAATCACTTTACTATAGTAACACTAAGTGTATGCCACTTTGGAGTGGAAC
DNA 2: GTTCCACTCCAAAGTGGCATACACTTAGTGTTACTATAGTAAAGTGATTA
For B4, the Kd in data set [5] (label: biotin for SPR (note on S35), blunt) was found to be 14 nM.

B5: Tr1 protected region I (p28 promoter) (dsDNA)
DNA 1: TACACATGATACTATACTTAACCAGTTTTTTTGCTATTACTTACCTGACG
DNA 2: CGTCAGGTAAGTAATAGCAAAAAAACTGGTTAAGTATAGTATCATGT
On to B5, for which the binding result in data set [4] (5' overhang 3 nt on strand 1 (reverse oligo as printed is 47 nt)) is “no binding”. For the same molecule, in data set [5] (none in plain EMSA, 5' overhang 3 nt on strand 1 (reverse oligo as printed is 47 nt)), the Kd came out at 2.52 nM.

B6: Tr1 protected region I, mutated motif (dsDNA)
DNA 1: TACACATGATGGGGGGCTTAACCAGTTTTTTTGCTATTACTTACCTGACG
DNA 2: CGTCAGGTAAGTAATAGCAAAAAAACTGGTTAAGCCCCCCATCATGTGTA
Turning to B6, in data set [8], the binding result was “no binding”.
